Measured values reported in the supplement of paper PMC5998384.

Experiments:
HeLa Kyoto [1] = assay: solubility change mitosis vs G1/S (difference of NP-40 vs SDS log2 ratios) (log2 ratio difference); higher = more soluble in mitosis
HeLa Kyoto [2] = assay: thermal stability score vs G1/S (z-score of summed log2 fold changes over temperatures); higher = more thermally stable than in G1/S
HeLa Kyoto [3] = assay: solubility in G1/S (NP-40 vs SDS abundance) (log2 ratio); higher = more soluble; details: cell cycle stage: G1/S
HeLa Kyoto [4] = assay: melting temperature (median over replicates), in situ; higher = more thermally stable
[5] = cell cycle stage: early G1 (4.5 h after nocodazole release)
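Throughout, for melting temperature (median over replicates), in situ: HeLa Kyoto cells synchronized by double thymidine or nocodazole block, proteins quantified by TMT10plex mass spectrometry, three independent biological replicates.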
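Throughout, for solubility change mitosis vs G1/S (difference of NP-40 vs SDS log2 ratios): synchronized HeLa Kyoto cells (double thymidine block for G1/S, nocodazole release for mitosis), protein amounts in NP-40 versus SDS lysates quantified by mass spectrometry, three biological replicates.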
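Throughout, for solubility in G1/S (NP-40 vs SDS abundance): HeLa Kyoto cells arrested at G1/S by double thymidine block, proteins quantified by TMT10plex mass spectrometry in mild NP-40 versus SDS extracts, three biological replicates.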
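Throughout, for thermal stability score vs G1/S (z-score of summed log2 fold changes over temperatures): synchronized HeLa Kyoto cells, proteins quantified by TMT10plex mass spectrometry, three biological replicates, mitosis taken 0.5 h after nocodazole release, G1/S directly after double thymidine block.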

AGRN, sequence (chain, as listed by the source): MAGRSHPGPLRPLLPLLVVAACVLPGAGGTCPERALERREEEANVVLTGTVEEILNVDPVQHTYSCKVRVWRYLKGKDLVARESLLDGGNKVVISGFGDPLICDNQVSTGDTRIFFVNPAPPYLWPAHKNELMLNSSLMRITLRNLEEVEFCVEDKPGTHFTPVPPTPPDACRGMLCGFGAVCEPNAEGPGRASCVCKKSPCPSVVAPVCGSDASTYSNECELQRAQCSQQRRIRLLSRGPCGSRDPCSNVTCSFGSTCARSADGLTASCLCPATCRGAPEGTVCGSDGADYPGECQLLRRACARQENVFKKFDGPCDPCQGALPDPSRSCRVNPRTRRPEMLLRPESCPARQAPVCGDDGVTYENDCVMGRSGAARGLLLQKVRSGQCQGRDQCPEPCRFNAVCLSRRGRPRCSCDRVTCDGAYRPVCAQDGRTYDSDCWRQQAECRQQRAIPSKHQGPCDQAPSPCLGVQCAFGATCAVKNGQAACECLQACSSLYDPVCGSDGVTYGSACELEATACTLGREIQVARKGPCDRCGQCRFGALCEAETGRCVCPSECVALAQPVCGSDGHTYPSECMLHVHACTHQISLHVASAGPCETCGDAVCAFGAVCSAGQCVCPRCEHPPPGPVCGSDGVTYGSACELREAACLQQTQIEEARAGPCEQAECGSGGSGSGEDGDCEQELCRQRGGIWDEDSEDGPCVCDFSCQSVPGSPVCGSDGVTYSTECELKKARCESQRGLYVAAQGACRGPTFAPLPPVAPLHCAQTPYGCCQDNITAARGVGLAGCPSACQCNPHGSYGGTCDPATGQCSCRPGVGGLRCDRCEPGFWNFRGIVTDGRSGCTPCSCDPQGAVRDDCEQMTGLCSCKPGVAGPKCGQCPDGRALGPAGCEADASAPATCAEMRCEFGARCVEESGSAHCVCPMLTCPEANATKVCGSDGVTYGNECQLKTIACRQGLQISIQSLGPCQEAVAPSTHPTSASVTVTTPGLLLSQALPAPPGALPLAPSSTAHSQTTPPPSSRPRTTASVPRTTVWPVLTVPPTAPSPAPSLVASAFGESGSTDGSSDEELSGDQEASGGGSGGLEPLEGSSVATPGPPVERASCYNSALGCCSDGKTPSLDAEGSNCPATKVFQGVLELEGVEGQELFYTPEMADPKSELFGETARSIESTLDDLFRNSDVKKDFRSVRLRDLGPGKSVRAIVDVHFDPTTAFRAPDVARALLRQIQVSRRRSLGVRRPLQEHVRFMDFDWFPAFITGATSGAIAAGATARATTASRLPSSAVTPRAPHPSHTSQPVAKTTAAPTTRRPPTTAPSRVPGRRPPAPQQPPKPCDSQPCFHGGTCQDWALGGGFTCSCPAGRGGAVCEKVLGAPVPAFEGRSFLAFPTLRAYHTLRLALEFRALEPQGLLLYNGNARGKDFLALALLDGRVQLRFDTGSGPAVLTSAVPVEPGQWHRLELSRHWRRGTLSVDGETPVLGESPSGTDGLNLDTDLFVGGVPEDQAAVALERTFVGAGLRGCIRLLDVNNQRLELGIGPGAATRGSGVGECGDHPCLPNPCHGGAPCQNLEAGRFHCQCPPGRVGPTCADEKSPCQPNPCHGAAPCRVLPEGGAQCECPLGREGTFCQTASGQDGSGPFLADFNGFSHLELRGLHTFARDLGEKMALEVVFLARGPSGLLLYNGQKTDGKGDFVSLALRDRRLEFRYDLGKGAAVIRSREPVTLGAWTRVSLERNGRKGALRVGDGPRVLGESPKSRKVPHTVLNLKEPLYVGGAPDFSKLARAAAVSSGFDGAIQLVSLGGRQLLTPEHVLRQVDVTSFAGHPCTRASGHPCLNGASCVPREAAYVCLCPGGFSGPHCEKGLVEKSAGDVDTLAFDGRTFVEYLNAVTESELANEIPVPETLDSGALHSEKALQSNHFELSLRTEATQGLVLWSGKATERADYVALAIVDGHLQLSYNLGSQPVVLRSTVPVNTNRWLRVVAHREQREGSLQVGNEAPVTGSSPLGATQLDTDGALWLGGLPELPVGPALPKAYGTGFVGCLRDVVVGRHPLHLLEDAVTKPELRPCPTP
LMTK2, sequence (chain, as listed by the source): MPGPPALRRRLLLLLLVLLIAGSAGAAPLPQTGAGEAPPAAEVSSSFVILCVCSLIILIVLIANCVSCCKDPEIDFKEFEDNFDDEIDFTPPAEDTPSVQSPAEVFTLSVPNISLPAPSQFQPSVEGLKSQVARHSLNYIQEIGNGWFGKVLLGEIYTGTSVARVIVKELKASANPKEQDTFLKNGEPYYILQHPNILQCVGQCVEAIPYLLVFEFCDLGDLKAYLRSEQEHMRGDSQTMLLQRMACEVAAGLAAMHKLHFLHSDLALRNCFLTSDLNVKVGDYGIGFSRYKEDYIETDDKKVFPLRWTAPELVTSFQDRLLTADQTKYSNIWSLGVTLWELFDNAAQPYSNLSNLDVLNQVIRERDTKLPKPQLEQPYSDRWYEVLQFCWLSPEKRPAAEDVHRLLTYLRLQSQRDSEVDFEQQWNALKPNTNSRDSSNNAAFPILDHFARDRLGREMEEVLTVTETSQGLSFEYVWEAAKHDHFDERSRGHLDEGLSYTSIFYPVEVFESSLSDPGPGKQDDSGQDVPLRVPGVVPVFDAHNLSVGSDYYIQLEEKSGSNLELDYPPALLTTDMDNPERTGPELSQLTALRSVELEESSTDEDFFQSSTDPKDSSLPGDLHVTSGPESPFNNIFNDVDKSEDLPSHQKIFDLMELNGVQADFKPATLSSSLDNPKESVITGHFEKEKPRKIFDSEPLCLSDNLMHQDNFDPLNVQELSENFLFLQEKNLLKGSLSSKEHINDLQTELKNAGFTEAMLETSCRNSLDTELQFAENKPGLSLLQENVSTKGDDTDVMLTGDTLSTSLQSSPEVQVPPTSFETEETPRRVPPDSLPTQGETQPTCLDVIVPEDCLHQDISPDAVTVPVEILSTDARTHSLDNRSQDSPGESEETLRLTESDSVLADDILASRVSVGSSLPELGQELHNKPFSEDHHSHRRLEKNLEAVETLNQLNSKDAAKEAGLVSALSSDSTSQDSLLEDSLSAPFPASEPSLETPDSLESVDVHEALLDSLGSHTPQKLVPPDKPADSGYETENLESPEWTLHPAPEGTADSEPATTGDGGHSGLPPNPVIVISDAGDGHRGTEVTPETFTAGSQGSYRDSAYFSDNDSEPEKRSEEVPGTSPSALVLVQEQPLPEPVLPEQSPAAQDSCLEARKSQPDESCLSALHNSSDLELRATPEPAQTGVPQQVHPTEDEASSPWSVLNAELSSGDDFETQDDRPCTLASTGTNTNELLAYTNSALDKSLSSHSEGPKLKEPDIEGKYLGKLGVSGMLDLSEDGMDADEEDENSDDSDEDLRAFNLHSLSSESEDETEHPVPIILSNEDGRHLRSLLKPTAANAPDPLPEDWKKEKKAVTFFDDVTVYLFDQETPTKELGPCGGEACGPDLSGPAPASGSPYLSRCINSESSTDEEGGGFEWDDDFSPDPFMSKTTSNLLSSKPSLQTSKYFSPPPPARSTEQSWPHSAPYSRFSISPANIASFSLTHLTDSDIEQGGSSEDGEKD
ATRN, sequence (chain, as listed by the source): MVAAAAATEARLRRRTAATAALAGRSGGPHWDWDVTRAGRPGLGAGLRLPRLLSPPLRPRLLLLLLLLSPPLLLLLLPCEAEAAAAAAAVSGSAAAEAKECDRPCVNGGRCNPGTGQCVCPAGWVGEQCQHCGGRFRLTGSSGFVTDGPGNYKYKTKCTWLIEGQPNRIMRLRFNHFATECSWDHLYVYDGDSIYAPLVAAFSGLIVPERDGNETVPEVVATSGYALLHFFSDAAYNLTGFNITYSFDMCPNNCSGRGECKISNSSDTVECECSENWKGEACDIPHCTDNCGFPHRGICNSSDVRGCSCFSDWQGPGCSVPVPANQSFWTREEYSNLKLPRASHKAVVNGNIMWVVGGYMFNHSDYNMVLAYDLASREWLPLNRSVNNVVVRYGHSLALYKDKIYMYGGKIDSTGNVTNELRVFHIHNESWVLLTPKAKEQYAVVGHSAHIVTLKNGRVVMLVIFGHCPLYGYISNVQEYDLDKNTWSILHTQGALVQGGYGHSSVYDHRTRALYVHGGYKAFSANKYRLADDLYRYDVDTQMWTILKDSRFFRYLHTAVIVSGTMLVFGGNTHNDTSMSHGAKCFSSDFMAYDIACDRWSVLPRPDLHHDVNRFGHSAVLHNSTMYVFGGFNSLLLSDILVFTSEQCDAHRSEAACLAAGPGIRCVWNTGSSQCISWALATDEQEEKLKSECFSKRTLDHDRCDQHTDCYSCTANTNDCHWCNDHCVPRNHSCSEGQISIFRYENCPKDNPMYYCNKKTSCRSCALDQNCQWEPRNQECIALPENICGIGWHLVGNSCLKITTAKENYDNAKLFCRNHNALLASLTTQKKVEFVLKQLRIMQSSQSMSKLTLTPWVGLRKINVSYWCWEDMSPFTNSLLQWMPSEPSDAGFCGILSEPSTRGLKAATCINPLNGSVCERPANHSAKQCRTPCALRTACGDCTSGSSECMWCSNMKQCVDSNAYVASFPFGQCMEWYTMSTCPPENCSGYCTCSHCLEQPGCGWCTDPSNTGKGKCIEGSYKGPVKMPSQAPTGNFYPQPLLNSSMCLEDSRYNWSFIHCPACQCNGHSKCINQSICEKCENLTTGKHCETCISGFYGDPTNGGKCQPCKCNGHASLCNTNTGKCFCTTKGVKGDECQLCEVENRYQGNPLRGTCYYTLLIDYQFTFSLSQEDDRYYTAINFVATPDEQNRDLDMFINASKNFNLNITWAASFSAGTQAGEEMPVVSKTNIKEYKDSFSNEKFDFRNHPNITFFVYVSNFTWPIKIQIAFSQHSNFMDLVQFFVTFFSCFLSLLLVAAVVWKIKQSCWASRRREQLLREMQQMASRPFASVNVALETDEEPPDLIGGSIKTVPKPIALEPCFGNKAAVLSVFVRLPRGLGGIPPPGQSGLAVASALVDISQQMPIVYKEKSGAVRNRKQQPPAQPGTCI

Substance	solubility change mitosis (log2) (HeLa Kyoto [1])	also measured
ACTA1	-0.193	–
AGRN	-0.0384	thermal stability score (HeLa Kyoto [2]; [5]): 3.71; thermal stability score (HeLa Kyoto [2]; cell cycle stage: mitosis): 4.6
AJUBA	-0.0418	–
AK2	0.09	–
ALG12	-0.0892	solubility in G1/S (log2) (HeLa Kyoto [3]): -0.268
ARAP3	-0.158	solubility in G1/S (log2) (HeLa Kyoto [3]): 0.016
ARHGEF11	-0.0196	solubility in G1/S (log2) (HeLa Kyoto [3]): -0.0113
ATG2A	-0.036	solubility in G1/S (log2) (HeLa Kyoto [3]): -0.135
ATRN	-0.041	solubility in G1/S (log2) (HeLa Kyoto [3]): 0.238
BCKDK	-0.0559	–
BCORL1	0.348	solubility in G1/S (log2) (HeLa Kyoto [3]): -0.267
CBWD1	-0.0771	solubility in G1/S (log2) (HeLa Kyoto [3]): 0.26
CEP290	0.0705	solubility in G1/S (log2) (HeLa Kyoto [3]): 0.253
CHAF1B	0.105	–
CIC	-0.0541	solubility in G1/S (log2) (HeLa Kyoto [3]): -0.00578
CLK3	0.423	solubility in G1/S (log2) (HeLa Kyoto [3]): -1.26
CNOT11	-0.0916	–
COLGALT1	0.0451	–
DDX60	-0.0365	solubility in G1/S (log2) (HeLa Kyoto [3]): -0.517
DNMT3B	0.67	–
DOCK4	0.0146	solubility in G1/S (log2) (HeLa Kyoto [3]): -0.259
DPP7	0.00739	–
DPYSL2	-0.147	–

Substance	solubility change mitosis (log2) (HeLa Kyoto [1])	also measured
DYRK1A	0.0078	–
EI24	-0.07	–
EMG1	0.19	–
ETF1	-0.146	–
FNTA	-0.132	–
GAA	-0.231	–
GADD45GIP1	0.258	–
GORASP2	-0.317	–
HPCAL1	-0.0209	–
HSPG2	-0.021	–
IFI30	0.347	–
LARP1	0.306	–
LMTK2	-0.217	solubility in G1/S (log2) (HeLa Kyoto [3]): -0.313
LRPPRC	-0.118	–
MAFIRKKQQEQQLQLYSKERFSLLLLNLEEYYFEQHRANHILHKGSHHERKIRGSLKICSKSVIFEPDSISQPIIKIPLRDCIKIGKHGENGANRHFTKAKSGGISLIFSQVYFIKEHNVVAPYKIERGKMEYVFELDVPGKVEDVVETLLQLHRASCLDKLGDQTAMITAILQSRLARTSFDKNRFQNISEKLHMECKAEMVTPLVTNPGHVCITDTNLYFQPLNGYPKPVVQITLQDVRRIYKRRHGLMPLGLEVFCTEDDLCSDIYLKFYEPQDRDDLYFYIATYLEHHVAEHTAESYMLQWQRGHLSNYQYLLHLNNLADRSCNDLSQYPVFPWIIHDYSSSELDLSNPGTFRDLSKPVGALNKERLERLLTRYQEMPEPKFMYGSHYSSPGYVLFYLVRIAPEYMLCLQNGRFDNADRMFNSIAETWKNCLDGATDFKELIPEFYGDDVSFLVNSLKLDLGKRQGGQMVDDVELPPWASSPEDFLQKSKDALESNYVSEHLHEWIDLIFGYKQKGSDAVGAHNVFHPLTYEGGVDLNSIQDPDEKVAMLTQILEFGQTPKQLFVTPHPRRITPKFKSLSQTSSYNASMADSPGEESFEDLTEESKTLAWNNITKLQLHEHYKIHKEAVTGITVSRNGSSVFTTSQDSTLKMFSKESKMLQRSISFSNMALSSCLLLPGDATVITSSWDNNVYFYSIAFGRRQDTLMGHDDAVSKICWHDNRLYSASWDSTVKVWSGVPAEMPGTKRHHFDLLAELEHDVSVDTISLNAASTLLVSGTKEGTVNIWDLTTATLMHQIPCHSGIVCDTAFSPDSRHVLSTGTDGCLNVIDVQTGMLISSMTSDEPQRCFVWDGNSVLSGSQSGELLVWDLLGAKISERIQGHTGAVTCIWMNEQCSSIITGGEDRQIIFWKLQY [NSMAF]	-0.221	thermal stability score (HeLa Kyoto [2]; [5]): -0.603; thermal stability score (HeLa Kyoto [2]; cell cycle stage: mitosis): 0.514
MALSU1	-0.0468	–
MASDSGNQGTLCTLEFAVQMTCQSCVDAVRKSLQGVAGVQDVEVHLEDQMVLVHTTLPSQEVQALLEGTGRQAVLKGMGSGQLQNLGAAVAILGGPGTVQGVVRFLQLTPERCLIEGTIDGLEPGLHGLHVHQYGDLTNNCNSCGNHFNPDGASHGGPQDSDRHRGDLGNVRADADGRAIFRMEDEQLKVWDVIGRSLIIDEGEDDLGRGGHPLSKITGNSGERLACGIIARSAGLFQNPKQICSCDGLTIWEERGRPIAGKGRKESAQPPAHL [CCS]	0.0319	thermal stability score (HeLa Kyoto [2]; [5]): 0.914; thermal stability score (HeLa Kyoto [2]; cell cycle stage: mitosis): 0.694
MEAF6	0.685	–
MGLTISSLFSRLFGKKQMRILMVGLDAAGKTTILYKLKLGEIVTTIPTIGFNVETVEYKNICFTVWDVGGQDRIRPLWKHYFQNTQGLIFVVDSNDRERIQEVADELQKMLLVDELRDAVLLLFANKQDLPNAMAISEMTDKLGLQSLRNRTWYVQATCATQGTGLYEGLDWLSNELSKR [ARF4]	-0.374	thermal stability score (HeLa Kyoto [2]; [5]): 4.99; thermal stability score (HeLa Kyoto [2]; cell cycle stage: mitosis): 6.18
MRPL3	-0.0054	–
MRPL4	-0.11	–
MRPL18	0.126	–
MRPL35	0.149	–

Substance	solubility change mitosis (log2) (HeLa Kyoto [1])	also measured
MRPL40	0.188	–
MRPL46	0.212	–
MRPL47	0.0261	–
MRPL53	0.25	–
MRPS5	0.017	–
MRPS9	-0.0743	–
MRPS14	0.165	–
MRPS18B	0.111	–
MRPS25	0.166	–
MRPS30	-0.14	–
MWRWIRQQLGFDPPHQSDTRTIYVANRFPQNGLYTPQKFIDNRIISSKYTVWNFVPKNLFEQFRRVANFYFLIIFLVQLMIDTPTSPVTSGLPLFFVITVTAIKQGYEDWLRHNSDNEVNGAPVYVVRSGGLVKTRSKNIRVGDIVRIAKDEIFPADLVLLSSDRLDGSCHVTTASLDGETNLKTHVAVPETALLQTVANLDTLVAVIECQQPEADLYRFMGRMIITQQMEEIVRPLGPESLLLRGARLKNTKEIFGVAVYTGMETKMALNYKSKSQKRSAVEKSMNTFLIIYLVILISEAVISTILKYTWQAEEKWDEPWYNQKTEHQRNSSKILRFISDFLAFLVLYNFIIPISLYVTVEMQKFLGSFFIGWDLDLYHEESDQKAQVNTSDLNEELGQVEYVFTDKTGTLTENEMQFRECSINGMKYQEINGRLVPEGPTPDSSEGNLSYLSSLSHLNNLSHLTTSSSFRTSPENETELIKEHDLFFKAVSLCHTVQISNVQTDCTGDGPWQSNLAPSQLEYYASSPDEKALVEAAARIGIVFIGNSEETMEVKTLGKLERYKLLHILEFDSDRRRMSVIVQAPSGEKLLFAKGAESSILPKCIGGEIEKTRIHVDEFALKGLRTLCIAYRKFTSKEYEEIDKRIFEARTALQQREEKLAAVFQFIEKDLILLGATAVEDRLQDKVRETIEALRMAGIKVWVLTGDKHETAVSVSLSCGHFHRTMNILELINQKSDSECAEQLRQLARRITEDHVIQHGLVVDGTSLSLALREHEKLFMEVCRNCSAVLCCRMAPLQKAKVIRLIKISPEKPITLAVGDGANDVSMIQEAHVGIGIMGKEGRQAARNSDYAIARFKFLSKLLFVHGHFYYIRIATLVQYFFYKNVCFITPQFLYQFYCLFSQQTLYDSVYLTLYNICFTSLPILIYSLLEQHVDPHVLQNKPTLYRDISKNRLLSIKTFLYWTILGFSHAFIFFFGSYLLIGKDTSLLGNGQMFGNWTFGTLVFTVMVITVTVKMALETHFWTWINHLVTWGSIIFYFVFSLFYGGILWPFLGSQNMYFVFIQLLSSGSAWFAIILMVVTCLFLDIIKKVFDRHLHPTSTEKAQLTETNAGIKCLDSMCCFPEGEAACASVGRMLERVIGRCSPTHISRSWSASDPFYTNDRSILTLSTMDSSTC [ATP11B]	–	melting temperature (HeLa Kyoto [4]; cell cycle stage: G1/S): 57.4 °C; melting temperature (HeLa Kyoto [4]; cell cycle stage: mitosis): 55.5 °C; thermal stability score (HeLa Kyoto [2]; [5]): -2.25; thermal stability score (HeLa Kyoto [2]; cell cycle stage: mitosis): -0.924
MYRTKVGLKDRQQLYKLIISQLLYDGYISIANGLINEIKPQSVCAPSEQLLHLIKLGMENDDTAVQYAIGRSDTVAPGTGIDLEFDADVQTMSPEASEYETCYVTSHKGPCRVATYSRDGQLIATGSADASIKILDTERMLAKSAMPIEVMMNETAQQNMENHPVIRTLYDHVDEVTCLAFHPTEQILASGSRDYTLKLFDYSKPSAKRAFKYIQEAEMLRSISFHPSGDFILVGTQHPTLRLYDINTFQCFVSCNPQDQHTDAICSVNYNSSANMYVTGSKDGCIKLWDGVSNRCITTFEKAHDGAEVCSAIFSKNSKYILSSGKDSVAKLWEISTGRTLVRYTGAGLSGRQVHRTQAVFNHTEDYVLLPDERTISLCCWDSRTAERRNLLSLGHNNIVRCIVHSPTNPGFMTCSDDFRARFWYRRSTTD [CSTF1]	-0.043	thermal stability score (HeLa Kyoto [2]; [5]): -1.59; thermal stability score (HeLa Kyoto [2]; cell cycle stage: mitosis): -2.67
NCK1	-0.221	–
NCKIPSD	-0.148	–
NT5C3A	-0.0945	–
NUDT1	-0.22	–
POLB	-0.0195	–
POLR2B	0.175	–
POLR2E	0.311	–
PTCD3	-0.182	–
RAC1	-0.0656	–
RPL4	0.805	–
RPL13	0.759	–

Substance	solubility change mitosis (log2) (HeLa Kyoto [1])	also measured
RPL23	0.476	–
RPL27	0.573	–
RPL29	1.68	–
RPL30	0.776	–
RPL32	0.91	–
RPL35A	0.707	–
RPL37	1.29	–
RPS3A	0.538	–
RPS4X	0.489	–
RPS5	0.452	–
RPS10	0.59	–
RPS21	0.45	–
S100A6	0.893	–
SARS	-0.0633	–
SLAIN2	-0.187	–
SNX27	-0.11	–
TACO1	0.0266	–
TMEM263	0.0364	–
TUFM	-0.0187	–
VPS35	-0.178	–
